Source: article PMC5974431

Molecular target: T1, V1-TRF2, Q15554
T1 chain: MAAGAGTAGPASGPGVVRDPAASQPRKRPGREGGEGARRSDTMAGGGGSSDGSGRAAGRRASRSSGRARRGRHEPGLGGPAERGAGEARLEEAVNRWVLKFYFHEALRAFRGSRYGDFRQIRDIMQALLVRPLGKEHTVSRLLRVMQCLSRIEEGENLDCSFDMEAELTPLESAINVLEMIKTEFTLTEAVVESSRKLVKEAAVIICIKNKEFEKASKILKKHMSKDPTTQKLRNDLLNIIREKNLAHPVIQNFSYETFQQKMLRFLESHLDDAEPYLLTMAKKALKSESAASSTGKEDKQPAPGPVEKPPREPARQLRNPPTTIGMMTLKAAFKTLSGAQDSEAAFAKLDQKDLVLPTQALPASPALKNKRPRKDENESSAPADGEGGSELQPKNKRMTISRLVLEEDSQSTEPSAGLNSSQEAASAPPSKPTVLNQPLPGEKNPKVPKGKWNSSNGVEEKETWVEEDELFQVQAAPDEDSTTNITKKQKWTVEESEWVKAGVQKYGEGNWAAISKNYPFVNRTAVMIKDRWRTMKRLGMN
Test: protein fragment complementation assay (PCA), split Venus
Conditions: chain shown with the change; coexpression by cotransfection; three separate transfections each measured in triplicate; parent: est. 12500; read off a plot

B1: TIN2L-V2, Q9BSI4-1 R282H (protein)
chain: MATPLVAGPAALRFAAAASWQVVRGRCVEHFPRVLEFLRSLRAVAPGLVRYRHHERLCMGLKAKVVVELILQGRPWAQVLKALNHHFPESGPIVRDPKATKQDLRKILEAQETFYQQVKQLSEAPVDLASKLQELEQEYGEPFLAAMEKLLFEYLCQLEKALPTPQAQQLQDVLSWMQPGVSITSSLAWRQYGVDMGWLLPECSVTDSVNLAEPMEQNPPQQQRLALHNPLPKAKPGTHLPQGPSSRTHPEPLAGRHFNLAPLGRRRVQSQWASTRGGHKEHPTVMLFPFRNLGSPTQVISKPESKEEHAIYTADLAMGTRAASTGKSKSPCQTLGGRALKENPVDLPATEQKENCLDCYMDPLRLSLLPPRARKPVCPPSLCSSVITIGDLVLDSDEEENGQGEGKESLENYQKTKFDTLIPTLCEYLPPSGHGAIPVSSCDCRDSSRPL
B1 showed a response (fluorescence activity minus background) of 5900.

B2: TIN2L-V2, Q9BSI4-1 D391K; D395K (protein)
chain: MATPLVAGPAALRFAAAASWQVVRGRCVEHFPRVLEFLRSLRAVAPGLVRYRHHERLCMGLKAKVVVELILQGRPWAQVLKALNHHFPESGPIVRDPKATKQDLRKILEAQETFYQQVKQLSEAPVDLASKLQELEQEYGEPFLAAMEKLLFEYLCQLEKALPTPQAQQLQDVLSWMQPGVSITSSLAWRQYGVDMGWLLPECSVTDSVNLAEPMEQNPPQQQRLALHNPLPKAKPGTHLPQGPSSRTHPEPLAGRHFNLAPLGRRRVQSQWASTRGGHKERPTVMLFPFRNLGSPTQVISKPESKEEHAIYTADLAMGTRAASTGKSKSPCQTLGGRALKENPVDLPATEQKENCLDCYMDPLRLSLLPPRARKPVCPPSLCSSVITIGKLVLKSDEEENGQGEGKESLENYQKTKFDTLIPTLCEYLPPSGHGAIPVSSCDCRDSSRPL
Work on B2 yielded a response (fluorescence activity minus background) of 5700.
